Earlier results in article PMC8151241.
pKd: −log10 of the molar value.

Key:
[1] = molecular target: PRK (Chlamydomonas reinhardtii) (UniProt P19824)
[2] = molecular target: GAPDH (Chlamydomonas reinhardtii) (UniProt P50362)
[3] = molecular target: CP12-GAPDH complex (Chlamydomonas reinhardtii) (UniProt A6Q0K5)

Chain of UniProt P50362 (P50362 35-374): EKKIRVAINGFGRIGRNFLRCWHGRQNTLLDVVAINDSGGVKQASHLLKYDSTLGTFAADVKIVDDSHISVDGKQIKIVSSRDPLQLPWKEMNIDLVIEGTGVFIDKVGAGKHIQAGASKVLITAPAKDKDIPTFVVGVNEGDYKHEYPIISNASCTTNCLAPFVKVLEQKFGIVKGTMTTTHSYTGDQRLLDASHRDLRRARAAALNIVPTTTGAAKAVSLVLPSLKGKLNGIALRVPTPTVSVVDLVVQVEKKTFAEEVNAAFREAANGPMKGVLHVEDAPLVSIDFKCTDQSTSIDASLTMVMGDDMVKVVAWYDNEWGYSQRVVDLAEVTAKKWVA

| Substance | pKd [1] | pKd [2] | pKd [3] |
| --- | --- | --- | --- |
| CP12 (from UniProt A6Q0K5) | 5.89 | 9.40 | – |
| PRK (from UniProt P19824) | – | – | 7.22 |
